Source: paper PMC8748714 (2022)
No end group written: not given here.

T1: GLP-1R L144A (Homo sapiens)
T1 chain: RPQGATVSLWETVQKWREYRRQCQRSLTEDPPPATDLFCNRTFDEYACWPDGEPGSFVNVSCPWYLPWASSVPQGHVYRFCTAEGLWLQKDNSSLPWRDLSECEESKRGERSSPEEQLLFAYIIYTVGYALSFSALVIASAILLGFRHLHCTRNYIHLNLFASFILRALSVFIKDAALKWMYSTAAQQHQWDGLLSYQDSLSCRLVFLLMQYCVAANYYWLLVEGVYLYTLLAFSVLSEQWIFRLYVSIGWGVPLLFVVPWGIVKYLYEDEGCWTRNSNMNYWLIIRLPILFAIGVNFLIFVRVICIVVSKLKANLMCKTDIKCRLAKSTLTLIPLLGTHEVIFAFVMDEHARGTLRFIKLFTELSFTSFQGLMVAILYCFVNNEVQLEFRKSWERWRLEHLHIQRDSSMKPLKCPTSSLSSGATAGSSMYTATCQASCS

T2: GLP-1R L201A (Homo sapiens)
T2 chain: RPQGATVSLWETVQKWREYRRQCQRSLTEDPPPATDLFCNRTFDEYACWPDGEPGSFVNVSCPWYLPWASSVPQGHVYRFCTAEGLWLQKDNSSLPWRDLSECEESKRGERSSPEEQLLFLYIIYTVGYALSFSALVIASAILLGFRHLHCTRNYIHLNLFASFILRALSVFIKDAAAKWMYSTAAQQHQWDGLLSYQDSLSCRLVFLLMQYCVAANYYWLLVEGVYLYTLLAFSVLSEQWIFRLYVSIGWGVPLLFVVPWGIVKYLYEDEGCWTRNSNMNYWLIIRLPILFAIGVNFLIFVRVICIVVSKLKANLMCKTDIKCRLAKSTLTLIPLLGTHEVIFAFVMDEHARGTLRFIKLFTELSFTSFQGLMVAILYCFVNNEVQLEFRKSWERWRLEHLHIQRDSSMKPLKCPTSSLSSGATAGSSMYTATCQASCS

T3: GLP-1R V194A (Homo sapiens)
T3 chain: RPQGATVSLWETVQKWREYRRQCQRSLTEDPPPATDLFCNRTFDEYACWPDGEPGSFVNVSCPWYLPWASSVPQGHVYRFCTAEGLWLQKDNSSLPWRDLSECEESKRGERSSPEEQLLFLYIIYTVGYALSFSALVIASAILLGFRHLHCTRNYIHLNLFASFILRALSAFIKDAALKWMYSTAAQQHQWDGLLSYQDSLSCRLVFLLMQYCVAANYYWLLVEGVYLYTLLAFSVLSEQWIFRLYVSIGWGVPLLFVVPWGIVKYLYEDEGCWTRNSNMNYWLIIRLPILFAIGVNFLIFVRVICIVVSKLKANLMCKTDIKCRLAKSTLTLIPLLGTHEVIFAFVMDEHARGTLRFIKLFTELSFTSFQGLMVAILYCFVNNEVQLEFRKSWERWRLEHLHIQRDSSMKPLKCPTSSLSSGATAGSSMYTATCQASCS

T4: GLP-1R Q210A (Homo sapiens)
T4 chain: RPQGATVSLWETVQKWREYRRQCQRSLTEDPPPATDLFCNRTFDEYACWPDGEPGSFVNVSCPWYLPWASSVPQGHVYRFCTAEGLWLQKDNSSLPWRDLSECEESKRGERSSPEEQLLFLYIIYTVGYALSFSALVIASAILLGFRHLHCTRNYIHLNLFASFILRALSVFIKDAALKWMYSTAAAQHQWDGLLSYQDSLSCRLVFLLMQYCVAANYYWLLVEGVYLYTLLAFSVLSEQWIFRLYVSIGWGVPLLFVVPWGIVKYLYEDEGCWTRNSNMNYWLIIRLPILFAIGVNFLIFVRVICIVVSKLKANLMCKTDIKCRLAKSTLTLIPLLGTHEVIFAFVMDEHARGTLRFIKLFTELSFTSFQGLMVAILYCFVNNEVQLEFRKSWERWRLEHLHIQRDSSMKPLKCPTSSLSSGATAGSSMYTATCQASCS

T5: GLP-1R L142A (Homo sapiens)
T5 chain: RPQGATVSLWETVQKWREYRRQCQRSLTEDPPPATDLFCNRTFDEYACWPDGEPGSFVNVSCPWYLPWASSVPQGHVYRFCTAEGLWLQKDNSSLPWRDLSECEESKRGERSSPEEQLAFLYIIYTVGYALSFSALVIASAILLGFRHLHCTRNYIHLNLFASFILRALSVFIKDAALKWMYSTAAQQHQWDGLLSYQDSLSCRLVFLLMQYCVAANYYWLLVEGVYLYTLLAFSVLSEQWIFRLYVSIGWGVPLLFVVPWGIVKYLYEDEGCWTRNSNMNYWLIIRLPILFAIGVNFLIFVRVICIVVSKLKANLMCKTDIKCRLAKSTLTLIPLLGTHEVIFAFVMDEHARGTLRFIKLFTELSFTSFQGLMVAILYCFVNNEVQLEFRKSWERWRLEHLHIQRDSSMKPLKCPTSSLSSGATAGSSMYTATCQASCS


What was measured:
[1] = target: T1, GLP-1R L144A
[2] = target: T2, GLP-1R L201A
[3] = target: T3, GLP-1R V194A
[4] = target: T4, GLP-1R Q210A
[5] = target: T5, GLP-1R L142A

| IC50 [1] | IC50 [2] | IC50 [3] | IC50 [4] | IC50 [5] | Binder |
| --- | --- | --- | --- | --- | --- |
| 11 nM | 38.9 nM | 6.17 nM | – | – | HAEGTFTSDVSSYLEGQAAKEFIAWLVKGR (not fully specified (C-terminus)) [glucagon-like peptide-1] |
| 51.3 nM | 107 nM | 77.6 nM | 66.1 nM | 81.3 nM | HSQGTFTSDYSKYLDSRRAQDFVQWLMNTKRNRNNIA [oxyntomodulin] |
